Measurements from US20110028686A1 (published 2011).
Where two headings read alike, the source gives them in different places. Square brackets hold non-standard residues; d marks the D form. Primed or numbered codes have the meaning given here. Ends that are not written are not given here. * marks the point of attachment. acetamidofluorescein″ = acetamidofluorescein (5-iodoacetamidofluorescein attached to the C-terminal Cys); Fluorescein(5-NHCOCH2) = O=C(C*)Nc1ccc2c(c1)C(=O)OC21c2ccc(O)cc2Oc2cc(O)ccc21; pS = N[C@@H](COP(=O)(O)O)C(=O)O

Columns and labels:
[1] = molecular target: T1, HisKIX (UniProt P45481 586-672); assay: FP with HisKIX
T1 construct: range 586-672; the residue numbers fit mouse CBP; also called His-tagged CBP KIX domain; CBP KIX; not shown: amino-terminal hexahistidine tag and linker of pET15b
T1 sequence (P45481 586-672): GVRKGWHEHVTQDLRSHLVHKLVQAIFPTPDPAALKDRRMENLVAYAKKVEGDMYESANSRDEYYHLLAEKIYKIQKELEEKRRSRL

[2] = molecular target: T1, HisKIX; assay: FP, fluorescein-labelled peptide titrated with HisKIX, 25 C
[3] = molecular target: T2, Human recombinant Bcl-2 (1-205), soluble GST-fusion (Santa Cruz Biotechnology) (human, UniProt P10415 1-205); assay: fluorescence emission titration, fluorescein-labelled peptide + serially diluted Bcl-2, 4 C, PBS
T2 construct: Bought; also called GST-Bcl-2; not shown: glutathione S-transferase (GST) fusion partner
T2 sequence (P10415 1-205): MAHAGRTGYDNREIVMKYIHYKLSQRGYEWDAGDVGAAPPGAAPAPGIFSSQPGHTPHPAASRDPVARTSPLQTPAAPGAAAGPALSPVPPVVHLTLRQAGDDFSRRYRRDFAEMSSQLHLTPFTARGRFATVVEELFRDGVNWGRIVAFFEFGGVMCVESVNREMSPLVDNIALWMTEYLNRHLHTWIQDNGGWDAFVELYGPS

[4] = molecular target: T3, CBP KIX, wild type (Example 20) (UniProt P45481 586-665, limits assumed); assay: FP, 25 nM fluorescein-labelled ligand titrated with CBP KIX, 25 C
T3 construct: domain: KIX; also called wild type CBP KIX; CBP MX
T3 sequence (P45481 586-665 limits assumed): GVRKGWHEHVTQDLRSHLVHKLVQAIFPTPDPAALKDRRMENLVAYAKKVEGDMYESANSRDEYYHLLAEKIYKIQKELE

[5] = molecular target: T4, CBP KIX K662A (UniProt P45481 586-665, limits assumed); assay: FP with CBP KIX variant
T4 construct: domain: KIX
T4 sequence (P45481 586-665 K662A limits assumed): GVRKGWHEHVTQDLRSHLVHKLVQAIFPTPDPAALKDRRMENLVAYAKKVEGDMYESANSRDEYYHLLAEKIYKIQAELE

[6] = molecular target: T5, CBP KIX I660A (UniProt P45481 586-665, limits assumed); assay: FP with CBP KIX variant
T5 construct: domain: KIX; also called 1660A
T5 sequence (P45481 586-665 I660A limits assumed): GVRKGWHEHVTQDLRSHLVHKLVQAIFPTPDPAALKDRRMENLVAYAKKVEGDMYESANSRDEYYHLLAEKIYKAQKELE

[7] = molecular target: T6, CBP KIX I657A (UniProt P45481 586-665, limits assumed); assay: FP with CBP KIX variant
T6 construct: domain: KIX; also called 1657A
T6 sequence (P45481 586-665 I657A limits assumed): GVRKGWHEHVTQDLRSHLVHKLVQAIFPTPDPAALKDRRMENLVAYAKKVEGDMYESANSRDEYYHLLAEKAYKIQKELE

[8] = molecular target: T7, CBP KIX E655A (UniProt P45481 586-665, limits assumed); assay: FP with CBP KIX variant
T7 construct: domain: KIX
T7 sequence (P45481 586-665 E655A limits assumed): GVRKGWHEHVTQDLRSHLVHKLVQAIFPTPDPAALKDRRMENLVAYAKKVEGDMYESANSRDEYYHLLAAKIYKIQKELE

[9] = molecular target: T8, CBP KIX Y658F (UniProt P45481 586-665, limits assumed); assay: FP with CBP KIX variant
T8 construct: domain: KIX
T8 sequence (P45481 586-665 Y658F limits assumed): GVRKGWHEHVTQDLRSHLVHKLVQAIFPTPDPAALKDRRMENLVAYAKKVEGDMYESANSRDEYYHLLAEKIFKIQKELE

[10] = molecular target: T9, CBP KIX LL652-3AA (UniProt P45481 586-665, limits assumed); assay: FP with CBP KIX variant
T9 construct: domain: KIX
T9 sequence (P45481 other isoform, or with tags, fused parts or gaps limits assumed): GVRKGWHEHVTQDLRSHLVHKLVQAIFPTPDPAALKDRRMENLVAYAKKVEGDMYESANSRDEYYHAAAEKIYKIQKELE

[11] = molecular target: T10, CBP KIX L599A (UniProt P45481 586-665, limits assumed); assay: FP with CBP KIX variant
T10 construct: domain: KIX
T10 sequence (P45481 586-665 L599A limits assumed): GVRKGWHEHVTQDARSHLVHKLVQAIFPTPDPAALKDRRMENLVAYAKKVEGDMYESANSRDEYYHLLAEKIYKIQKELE

[12] = molecular target: T11, CBP KIX L603A (UniProt P45481 586-665, limits assumed); assay: FP with CBP KIX variant
T11 construct: domain: KIX
T11 sequence (P45481 586-665 L603A limits assumed): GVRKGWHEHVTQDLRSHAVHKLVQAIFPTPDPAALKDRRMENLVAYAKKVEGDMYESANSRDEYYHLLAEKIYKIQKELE

[13] = molecular target: T12, CBP KIX Q661A (UniProt P45481 586-665, limits assumed); assay: FP with CBP KIX variant
T12 construct: domain: KIX
T12 sequence (P45481 586-665 Q661A limits assumed): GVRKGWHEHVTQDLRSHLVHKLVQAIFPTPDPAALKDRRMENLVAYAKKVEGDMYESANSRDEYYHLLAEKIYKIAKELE

[14] = molecular target: T13, CBP KIX Y650A (Example 20) (UniProt P45481 586-665, limits assumed); assay: FP with CBP KIX variant
T13 construct: domain: KIX
T13 sequence (P45481 586-665 Y650A limits assumed): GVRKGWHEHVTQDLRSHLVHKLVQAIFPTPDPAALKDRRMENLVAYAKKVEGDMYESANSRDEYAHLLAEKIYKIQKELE

[15] = molecular target: T14, CBP KIX K606A (UniProt P45481 586-665, limits assumed); assay: FP with CBP KIX variant
T14 construct: domain: KIX
T14 sequence (P45481 586-665 K606A limits assumed): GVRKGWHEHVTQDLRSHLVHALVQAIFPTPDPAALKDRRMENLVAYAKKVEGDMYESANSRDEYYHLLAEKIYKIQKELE

[16] = molecular target: T15, CBP KIX Y658A (UniProt P45481 586-665, limits assumed); assay: FP with CBP KIX variant
T15 construct: domain: KIX
T15 sequence (P45481 586-665 Y658A limits assumed): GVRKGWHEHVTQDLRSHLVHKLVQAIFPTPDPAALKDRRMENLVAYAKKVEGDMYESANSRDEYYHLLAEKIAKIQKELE

[17] = molecular target: T4, CBP KIX K662A; assay: FP, 25 nM fluorescein-labelled ligand titrated with CBP KIX variant, 25 C
[18] = molecular target: T5, CBP KIX I660A; assay: as above
[19] = molecular target: T6, CBP KIX I657A; assay: as above
[20] = molecular target: T7, CBP KIX E655A; assay: as above
[21] = molecular target: T8, CBP KIX Y658F; assay: as above
[22] = molecular target: T9, CBP KIX LL652-3AA; assay: as above
[23] = molecular target: T10, CBP KIX L599A; assay: as above
[24] = molecular target: T11, CBP KIX L603A; assay: as above
[25] = molecular target: T12, CBP KIX Q661A; assay: as above
[26] = molecular target: T13, CBP KIX Y650A (Example 20); assay: as above
[27] = molecular target: T14, CBP KIX K606A; assay: as above
[28] = molecular target: T15, CBP KIX Y658A; assay: as above
[29] = molecular target: T3, CBP KIX, wild type (Example 20); assay: FP, fluorescein-labelled PPKID4^P variant titrated with CBP KIX
[30] = molecular target: T3, CBP KIX, wild type (Example 20); assay: FP with CBP KIX
[31] = molecular target: T1, HisKIX; assay: FP, fluorescein-labelled peptide titrated with HisKIX, 25 C; remark: listed apart in the source
[32] = molecular target: carbonic anhydrase II (Sigma); assay: FP, 50 nM fluorescein-labelled peptide titrated with carbonic anhydrase II, 25 C
carbonic anhydrase II (Sigma), sequence (P00921 2-260): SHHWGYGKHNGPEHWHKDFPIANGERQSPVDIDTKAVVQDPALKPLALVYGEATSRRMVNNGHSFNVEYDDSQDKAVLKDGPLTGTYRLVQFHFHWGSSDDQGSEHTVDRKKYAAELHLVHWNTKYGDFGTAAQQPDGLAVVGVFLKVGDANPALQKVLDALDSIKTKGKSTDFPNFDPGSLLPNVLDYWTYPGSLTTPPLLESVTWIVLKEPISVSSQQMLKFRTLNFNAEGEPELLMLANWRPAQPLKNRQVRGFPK

B1: PPKID6^P (designed binder)
peptide: GISWPTFEGDDAPVRRL[pS]FFYILLDLYLDAPGVC(Fluorescein(5-NHCOCH2))-NH2
modifications: N-terminus assumed
SMILES: CC[C@H](C)[C@H](NC(=O)CN)C(=O)N[C@@H](CO)C(=O)N[C@@H](Cc1c[nH]c2ccccc12)C(=O)N1CCC[C@H]1C(=O)N[C@H](C(=O)N[C@@H](Cc1ccccc1)C(=O)N[C@@H](CCC(=O)O)C(=O)NCC(=O)N[C@@H](CC(=O)O)C(=O)N[C@@H](CC(=O)O)C(=O)N[C@@H](C)C(=O)N1CCC[C@H]1C(=O)N[C@H](C(=O)N[C@@H](CCCNC(=N)N)C(=O)N[C@@H](CCCNC(=N)N)C(=O)N[C@@H](CC(C)C)C(=O)N[C@@H](COP(=O)(O)O)C(=O)N[C@@H](Cc1ccccc1)C(=O)N[C@@H](Cc1ccccc1)C(=O)N[C@@H](Cc1ccc(O)cc1)C(=O)N[C@H](C(=O)N[C@@H](CC(C)C)C(=O)N[C@@H](CC(C)C)C(=O)N[C@@H](CC(=O)O)C(=O)N[C@@H](CC(C)C)C(=O)N[C@@H](Cc1ccc(O)cc1)C(=O)N[C@@H](CC(C)C)C(=O)N[C@@H](CC(=O)O)C(=O)N[C@@H](C)C(=O)N1CCC[C@H]1C(=O)NCC(=O)N[C@H](C(=O)N[C@@H](CSCC(=O)Nc1ccc2c(c1)C(=O)OC21c2ccc(O)cc2Oc2cc(O)ccc21)C(N)=O)C(C)C)[C@@H](C)CC)C(C)C)[C@@H](C)O
notes: also called PPKID6 (phosphorylated)
- fold enhancement in affinity over unphosphorylated PPKID6 [1]: 2 fold
- ΔΔG relative to unphosphorylated PPKID6 [1]: -0.5 kcal/mol
- Kd [2]: 624 nM

B2: p4100 (designed binder)
peptide: GPSQPTYPGDDAPVEDLIRFVGRLLRYFGDEINRYC(5‑iodoacetamidofluorescein)-NH2
notes: As for p4099: amino terminal portion from aPP (e.g., residues 1-19); also called p4122 (labelled form, by order and mass)
- Kd [3]: 401 nM

B3: p4101 (designed binder)
peptide: GPSQPTYPGDDAPVEDLIRFVGRLLAYFGDDINRYC(5‑iodoacetamidofluorescein)-NH2
notes: As for p4099: amino terminal portion from aPP (e.g., residues 1-19); also called p4123 (labelled form, by order and mass)
- Kd [3]: 811 nM

B4: KID-AB^P (peptide)
peptide: TDSQKRREILSRRP[pS]YRKILNDLSSDAPGVC-NH2
modifications: also: C-terminal Cys acetamidofluorescein-labelled in direct assays, unlabelled as competitor
notes: CREB KID residues 119-148 (A and B helices) plus a C-terminal Cys; also called KID-AB (phosphorylated); CREB KID^P
- ΔΔG upon phosphorylation [1]: > 3.2 kcal/mol
- Kd [4]: 410 nM
- ΔΔG relative to wild type CBP KIX [5]: 1.5 kcal/mol
- ΔΔG relative to wild type CBP KIX [6]: -0.26 kcal/mol
- ΔΔG relative to wild type CBP KIX [7]: 0.9 kcal/mol
- ΔΔG relative to wild type CBP KIX [8]: 0.32 kcal/mol
- ΔΔG relative to wild type CBP KIX [9]: 2.5 kcal/mol
- ΔΔG relative to wild type CBP KIX [10]: 1.2 kcal/mol
- ΔΔG relative to wild type CBP KIX [11]: 0.58 kcal/mol
- ΔΔG relative to wild type CBP KIX [12]: 1.2 kcal/mol
- ΔΔG relative to wild type CBP KIX [13]: 0.48 kcal/mol
- ΔΔG relative to wild type CBP KIX [14]: 1.8 kcal/mol
- ΔΔG relative to wild type CBP KIX [15]: 1 kcal/mol
- ΔΔG relative to wild type CBP KIX [16]: 3.5 kcal/mol
- Kd [2]: 562 nM
- Kd [17]: 4800 nM
- Kd [18]: 270 nM
- Kd [19]: 1900 nM
- Kd [20]: 710 nM
- Kd [21]: 26000 nM
- Kd [22]: 2900 nM
- Kd [23]: 1100 nM
- Kd [24]: 3400 nM
- Kd [25]: 930 nM
- Kd [26]: 9400 nM
- Kd [27]: 2300 nM
- Kd [28]: 142000 nM

Binder: GPSQPTYPGDDAPVRRL[pS]FAYILLDLYLDAPGVC(acetamidofluorescein″)-NH2 (designed binder) [PPKID4^P F20A]
- Kd [29]: 2550 nM
- ΔΔG relative to wild type PPKID4^P [30]: 0.85 kcal/mol

Binder: GPSQATYPGDDAPVRRL[pS]FFYILLDLYLDAPGVC(acetamidofluorescein″)-NH2 (designed binder) [PPKID4^P P5A]
- Kd [29]: 1020 nM
- ΔΔG relative to wild type PPKID4^P [30]: 0.3 kcal/mol

Binder: GPSQPTYPGDDAPVRRA[pS]FFYILLDLYLDAPGVC(acetamidofluorescein″)-NH2 (designed binder) [PPKID4^P L17A]
- Kd [29]: 680 nM
- ΔΔG relative to wild type PPKID4^P [30]: 0.07 kcal/mol

Binder: GPSQPTYPGDDAPVRRL[pS]FFYILLDLYADAPGVC(acetamidofluorescein″)-NH2 (designed binder) [PPKID4^P L28A]
- Kd [29]: 830 nM
- ΔΔG relative to wild type PPKID4^P [30]: 0.18 kcal/mol

Binder: GASQPTYPGDDAPVRRL[pS]FFYILLDLYLDAPGVC(acetamidofluorescein″)-NH2 (designed binder) [PPKID4^P P2A]
- Kd [29]: 870 nM
- ΔΔG relative to wild type PPKID4^P [30]: 0.21 kcal/mol

Binder: GPSQPTYPGDDAPVRRL[pS]FFYILADLYLDAPGVC(acetamidofluorescein″)-NH2 (designed binder) [PPKID4^P L24A]
- Kd [29]: 1160 nM
- ΔΔG relative to wild type PPKID4^P [30]: 0.38 kcal/mol

Binder: GPSQPTYAGDDAPVRRL[pS]FFYILLDLYLDAPGVC(acetamidofluorescein″)-NH2 (designed binder) [PPKID4^P P8A]
- Kd [29]: 1070 nM
- ΔΔG relative to wild type PPKID4^P [30]: 0.33 kcal/mol

Binder: GPSQPTYPGDDAPVRRL[pS]FFYILLDLALDAPGVC(acetamidofluorescein″)-NH2 (designed binder) [PPKID4^P Y27A]
- Kd [29]: 3090 nM
- ΔΔG relative to wild type PPKID4^P [30]: 0.96 kcal/mol

B5: p4102 (designed binder)
peptide: GPSQPTYPGDDAPVEDLIRFVSRLRYIADLINRYC(5‑iodoacetamidofluorescein)-NH2
notes: Mutant with a single amino acid deletion in the alpha-helix; Amino terminal portion from aPP (e.g., residues 1-19); also called p4124 (labelled form, by order and mass)
- Kd [3]: 3700 nM

B6: peptide C^U (peptide)
peptide: RRLSFFYILLDLYLDAPGVC(acetamidofluorescein)-NH2
notes: also called Peptide C (unphosphorylated)
- ΔΔG relative to KID-B^U [1]: > -1.5 kcal/mol
- Kd [2]: 21500 nM
- Kd [31]: 21500 nM
- Kd [32]: 66000 nM
